This note sets out measurements from US20110055942A1.

For the test, the target named is T1, BMPR-1A receptor extra cellular domain (ECD), P36894.
T1 chain: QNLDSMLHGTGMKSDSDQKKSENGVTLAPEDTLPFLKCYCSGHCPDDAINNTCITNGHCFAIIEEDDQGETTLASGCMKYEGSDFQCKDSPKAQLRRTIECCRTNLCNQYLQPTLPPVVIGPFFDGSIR
Put plainly: radio-ligand competition: cold TDF-1 displacing 125I-labeled TDF-1 from immobilized BMPR-1A ECD. To be noted: remark: other sources report otherwise.

B1: TDF-1 (BMP-7 or OP-1), P18075 293-431 (ligand, UniProt P18075 293-431, looked up)
chain: STGSKQRSQNRSKTPKNQEALRMANVAENSSSDQRQACKKHELYVSFRDLGWQDWIIAPEGYAAYYCEGECAFPLNSYMNATNHAIVQTLVHFINPETVPKPCCAPTQLNAISVLYFDDSSNVILKKYRNMVVRACGCH
As for B1, the ED50 amounted to 6.5 nM.
